B1: KAT8 regulatory NSL complex subunit 1 (Homo sapiens), Q7Z3B3 (parent)
chain: MAAMAPALTDAAAEAHHIRFKLAPPSSTLSPGSAENNGNANILIAANGTKRKAIAAEDPSLDFRNNPTKEDLGKLQPLVASYLCSDVTSVPSKESLKLQGVFSKQTVLKSHPLLSQSYELRAELLGRQPVLEFSLENLRTMNTSGQTALPQAPVNGLAKKLTKSSTHSDHDNSTSLNGGKRALTSSALHGGEMGGSESGDLKGGMTNCTLPHRSLDVEHTTLYSNNSTANKSSVNSMEQPALQGSSRLSPGTDSSSNLGGVKLEGKKSPLSSILFSALDSDTRITALLRRQADIESRARRLQKRLQVVQAKQVERHIQHQLGGFLEKTLSKLPNLESLRPRSQLMLTRKAEAALRKAASETTTSEGLSNFLKSNSISEELERFTASGIANLRCSEQAFDSDVTDSSSGGESDIEEEELTRADPEQRHVPLRRRSEWKWAADRAAIVSRWNWLQAHVSDLEYRIRQQTDIYKQIRANKGLIVLGEVPPPEHTTDLFLPLSSEVKTDHGTDKLIESVSQPLENHGAPIIGHISESLSTKSCGALRPVNGVINTLQPVLADHIPGDSSDAEEQLHKKQRLNLVSSSSDGTCVAARTRPVLSCKKRRLVRPNSIVPLSKKVHRNSTIRPGCDVNPSCALCGSGSINTMPPEIHYEAPLLERLSQLDSCVHPVLAFPDDVPTSLHFQSMLKSQWQNKPFDKIKPPKKLSLKHRAPMPGSLPDSARKDRHKLVSSFLTTAKLSHHQTRPDRTHRQHLDDVGAVPMVERVTAPKAERLLNPPPPVHDPNHSKMRLRDHSSERSEVLKHHTDMSSSSYLAATHHPPHSPLVRQLSTSSDSPAPASSSSQVTASTSQQPVRRRRGESSFDINNIVIPMSVAATTRVEKLQYKEILTPSWREVDLQSLKGSPDEENEEIEDLSDAAFAALHAKCEEMERARWLWTTSVPPQRRGSRSYRSSDGRTTPQLGSANPSTPQPASPDVSSSHSLSEYSHGQSPRSPISPELHSAPLTPVARDTPRHLASEDTRCSTPELGLDEQSVQPWERRTFPLAHSPQAECEDQLDAQERAARCTRRTSGSKTGRETEAAPTSPPIVPLKSRHLVAAATAQRPTHR
B2: KAT8 regulatory NSL complex subunit 2 (Homo sapiens), Q9H9L4 (parent)
chain: MNRIRIHVLPTNRGRITPVPRSQEPLSCAFTHRPCSHPRLEGQEFCIKHILEDKNAPFKQCSYISTKNGKRCPNAAPKPEKKDGVSFCAEHVRRNALALHAQMKKTNPGPVGETLLCQLSSYAKTELGSQTPESSRSEASRILDEDSWSDGEQEPITVDQTWRGDPDSEADSIDSDQEDPLKHAGVYTAEEVALIMREKLIRLQSLYIDQFKRLQHLLKEKKRRYLHNRKVEHEALGSSLLTGPEGLLAKERENLKRLKCLRRYRQRYGVEALLHRQLKERRMLATDGAAQQAHTTRSSQRCLAFVDDVRCSNQSLPMTRHCLTHICQDTNQVLFKCCQGSEEVPCNKPVPVSLSEDPCCPLHFQLPPQMYKPEQVLSVPDDLEAGPMDLYLSAAELQPTESLPLEFSDDLDVVGDGMQCPPSPLLFDPSLTLEDHLVKEIAEDPVDILGQMQMAGDGCRSQGSRNSEKASAPLSQSGLATANGKPEPTSIS

Variants of: B1
Conditions: with wdr5_human WDR5, P61964

Row | Variant | effect of a mutation on the interaction
1 | R592A | disrupting interaction

Variants of: B2
Conditions: with wdr5_human WDR5, P61964

Row | Variant | effect of a mutation on the interaction
2 | MNRIRIHVLPTNRGRITPVPRSQEPLSCAFTHRPCSHPRLEGQEFCIKHILEDKNAPFKQCSYISTKNGKRCPNAAPKPEKKDGVSFCAEHVRRNALALHAQMKKTNPGPVGETLLCQLSSYAKTELGSQTPESSRSEASRILDEDSWSDGEQEPITVDQTWRGDPDSEADSIDSDQEDPLKHAGVYTAEEVALIMREKLIRLQSLYIDQFKRLQHLLKEKKRRYLHNRKVEHEALGSSLLTGPEGLLAKERENLKRLKCLRRYRQRYGVEALLHRQLKERRMLATDGAAQQAHTTRSSQRCLAFVDDVRCSNQSLPMTRHCLTHICQDTNQVLFKCCQGSEEVPCNKPVPVSLSEDPCCPLHFQLPPQMYKPEQVLSVPDDLEAGPMDLYLSAAELQPTESLPLEFSDDEDDVGDGMQCPPSPLLFDPSLTLEDHLVKEIAEDPVDILGQMQMAGDGCRSQGSRNSEKASAPLSQSGLATANGKPEPTSIS [L411E;V413D] | disrupting interaction

Variants of: B2
Conditions: with wdr5_human WDR5, P61964
Remark: another data set of the same source

Row | Variant | effect of a mutation on the interaction
3 | MNRIRIHVLPTNRGRITPVPRSQEPLSCAFTHRPCSHPRLEGQEFCIKHILEDKNAPFKQCSYISTKNGKRCPNAAPKPEKKDGVSFCAEHVRRNALALHAQMKKTNPGPVGETLLCQLSSYAKTELGSQTPESSRSEASRILDEDSWSDGEQEPITVDQTWRGDPDSEADSIDSDQEDPLKHAGVYTAEEVALIMREKLIRLQSLYIDQFKRLQHLLKEKKRRYLHNRKVEHEALGSSLLTGPEGLLAKERENLKRLKCLRRYRQRYGVEALLHRQLKERRMLATDGAAQQAHTTRSSQRCLAFVDDVRCSNQSLPMTRHCLTHICQDTNQVLFKCCQGSEEVPCNKPVPVSLSEDPCCPLHFQLPPQMYKPEQVLSVPDDLEAGPMDLYLSAAELQPTESLPLEFSDDLDDVGDGMQCPPSPLLFDPSLTLEDHLVKEIAEDPVDILGQMQMAGDGCRSQGSRNSEKASAPLSQSGLATANGKPEPTSIS [V413D] | disrupting interaction
